# Experimental data reported in patent US20210017226A1, “METHOD OF GENERATING INTERACTING PEPTIDES” (Peption, LLC, priority 2017, published 2021).
# “Also recorded” adds a separate entry of the source.
# Assays:
# [1] = biological target: T1, PDGF-β target sequence (PTD10, […]) (Homo sapiens, UniProt P01127); experiment: Dot blot to detect the PDGF-β target sequence PTD10; format: binding; conditions: beta sheet target
# T1 construct: […]; purchased Peptide 2.0
# Method: (§1) Finally, the blot was incubated with the chromogenic substrates.
# [2] = biological target: alkaline phosphatase target sequence (PTD8, […]) (Escherichia coli, UniProt P00634); conditions: dot blot, coil-beta sheet-coil target
# Method: For dot blot analysis, 1 μl (2.5 μg) or 2 μl (5 μg) of samples were spotted onto the nitrocellulose (NC) membrane and dried completely. Then, non-specific sites were blocked by soaking the membrane in the blocking solution made for NC membranes [Thermo Fisher Scientific, WesternBreeze™ Blocker/Diluent (Part A and B), catalog #WB7050]. The membrane was washed twice with water (1 ml per cm^2 membrane), and incubated with the 1st antibody (Ab) in a binding/wash (BW) buffer [50 mM sodiumphosphate, pH 8.0, 300 mM NaCl, and 0.01% Tween 20] for 1 h. The membrane was washed 4 times (for 2 minutes per wash) with the wash buffer [Thermo Fisher Scientific, WesternBreeze™ Wash Solution, catalog #WB7003]. If the 1st oligopeptide was Anti-Cas9 Ab-HRP conjugate [Thermo Fisher Scientific, catalog #MAC133P] or the peptide-AP fusions, the membrane was washed twice with water, and incubated with the chromogenic substrates, Chromogenic Substrate (TMB) [Thermo Fisher Scientific, catalog #WP20004] for HRP and NBT/BCIP substrate solution for AP [Thermo Fisher Scientific, catalog #34042]. Otherwise, the membrane was incubated with in the blocking solution for 1 h. To detect His-tagged peptide and proteins, the Anti-6His Ab-HRP conjugate [Thermo Fisher Scientific, catalog 46-0707] was used. Then the membrane was washed four times with the wash buffer and two times with water. Finally, the blot was incubated with the chromogenic substrates.
# [3] = biological target: T2, Cas9 protein (Streptococcus pyogenes serotype M1, UniProt Q99ZW2); experiment: Western blot to detect whole Cas9 protein (denatured); format: binding; conditions: Cas9 (no tag), 4-20% SDS-PAGE
# T2 construct: made in house; host or cells: E. coli BL21 Star (DE3)
# Method: as §1
# [4] = biological target: control peptide (PTD8, unrelated peptide) (Escherichia coli, UniProt P00634); conditions: dot blot, unrelated target (negative control)
# Method: For dot blot analysis, 1 μl (2.5 μg) or 2 μl (5 μg) of samples were spotted onto the nitrocellulose (NC) membrane and dried completely. Then, non-specific sites were blocked by soaking the membrane in the blocking solution made for NC membranes [Thermo Fisher Scientific, WesternBreeze™ Blocker/Diluent (Part A and B), catalog #WB7050]. The membrane was washed twice with water (1 ml per cm^2 membrane), and incubated with the 1st antibody (Ab) in a binding/wash (BW) buffer [50 mM sodiumphosphate, pH 8.0, 300 mM NaCl, and 0.01% Tween 20] for 1 h. The membrane was washed 4 times (for 2 minutes per wash) with the wash buffer [Thermo Fisher Scientific, WesternBreeze™ Wash Solution, catalog #WB7003]. If the 1st oligopeptide was Anti-Cas9 Ab-HRP conjugate [Thermo Fisher Scientific, catalog #MAC133P] or the peptide-AP fusions, the membrane was washed twice with water, and incubated with the chromogenic substrates, Chromogenic Substrate (TMB) [Thermo Fisher Scientific, catalog #WP20004] for HRP and NBT/BCIP substrate solution for AP [Thermo Fisher Scientific, catalog #34042]. Otherwise, the membrane was incubated with in the blocking solution for 1 h. To detect His-tagged peptide and proteins, the Anti-6His Ab-HRP conjugate [Thermo Fisher Scientific, catalog 46-0707] was used. Then the membrane was washed four times with the wash buffer and two times with water. […]
# [5] = biological target: T2, Cas9 protein; experiment: Dot blot to detect whole Cas9 protein (non-denatured); format: binding; conditions: Cas9 (no tag)
# Method: as §1
# [6] = test system: whole proteome of E. coli BL21 Star DE3; experiment: Western blot to detect binders in the whole proteome of E. coli BL21 Star DE3 (specificity); format: binding
# Text: For the western blot analysis, the protein samples were resolved in 4-20% gradient SDS-PAGE gel, transferred to NC membrane, and subjected to the western blot analysis using the same method for the dot blot analysis.
# [7] = biological target: T3, Cas9 target sequence (PTD12, EKLYLYYLQ, Helix: E813 to Q821) (Streptococcus pyogenes serotype M1, UniProt Q99ZW2); experiment: Dot blot to detect the Cas9 target sequence peptide PTD12; format: binding; conditions: for interaction of His-tagged synthetic CAAP oligopeptide with the target peptide PTD12: dot blot, peptide as 1st Ab, Anti-6His Ab-HRP detection
# T3 construct: […]; purchased Peptide 2.0
# Method: as §1
# For the image processing, we used Adobe Photoshop 7.0. Quantitative image analysis of the digital images was carried out using measuring tools of imaging software ImageJ (Schneider et al. 2012). Image analysis results were calculated by averaging data from three independent experiments.
# [8] = biological target: T4, Cas9 nuclease (Streptococcus pyogenes serotype M1, UniProt Q99ZW2); experiment: Cas9 activity assay in vitro (RNA-guided cleavage of 510 bp human AAVS1 DNA); format: biochemical
# T4 construct: made in house; host or cells: E. coli BL21 Star (DE3)
# Text: The sgRNA targeting human AAVS1 region (target sequence […] (SEQ ID NO: 36), PAM sequence underlined) was synthesized by in vitro transcription using a 118 bp PCR-assembled DNA fragment AAVS1_T23826 as template, following the manufacturer's protocol [Thermo Fisher Scientific, TranscriptAid T7 High Yield Transcription Kit, catalog #K0441]. The sgRNA product was purified using the GeneJET RNA Purification Micro Column [Thermo Fisher Scientific, catalog #K0841].
# A 510 bp human AAVS1 region was amplified from HEK293 genomic DNA by PCR using a primer set (CH1161 and CH1162) and used as a target DNA for the in vitro CRISPR/Cas9 assay. Performance of the Cas9 protein was assessed in various concentrations of Cas9 [100, 50, 25, 12.5, and 0 ng] in presence or absence of sgRNA and peptides (PTD14 (SEQ ID NO: 11) and PTD16 (SEQ ID NO: 30)) in the 1× buffer K [20 mM Tris-HCl, pH 8.5, 10 mM MgCl2, 1 mM Dithiothreitol (DTT), and 100 mM KCl]. The PTD16 (SEQ ID NO: 30) was used as an unrelated peptide control. The reaction mixture was incubated at 37° C. for 15 minutes. The reaction was stopped by adding a stop buffer [1 mM Tris-HCl (pH 7.5), 10 mM EDTA, 6.5% (w/v) Sucrose, 0.03% (w/v) Bromophenol Blue] and heat inactivated at 75° C. for 5 minutes. The reaction samples were resolved in 4% agarose gel.
# T2 sequence (Q99ZW2 whole entry): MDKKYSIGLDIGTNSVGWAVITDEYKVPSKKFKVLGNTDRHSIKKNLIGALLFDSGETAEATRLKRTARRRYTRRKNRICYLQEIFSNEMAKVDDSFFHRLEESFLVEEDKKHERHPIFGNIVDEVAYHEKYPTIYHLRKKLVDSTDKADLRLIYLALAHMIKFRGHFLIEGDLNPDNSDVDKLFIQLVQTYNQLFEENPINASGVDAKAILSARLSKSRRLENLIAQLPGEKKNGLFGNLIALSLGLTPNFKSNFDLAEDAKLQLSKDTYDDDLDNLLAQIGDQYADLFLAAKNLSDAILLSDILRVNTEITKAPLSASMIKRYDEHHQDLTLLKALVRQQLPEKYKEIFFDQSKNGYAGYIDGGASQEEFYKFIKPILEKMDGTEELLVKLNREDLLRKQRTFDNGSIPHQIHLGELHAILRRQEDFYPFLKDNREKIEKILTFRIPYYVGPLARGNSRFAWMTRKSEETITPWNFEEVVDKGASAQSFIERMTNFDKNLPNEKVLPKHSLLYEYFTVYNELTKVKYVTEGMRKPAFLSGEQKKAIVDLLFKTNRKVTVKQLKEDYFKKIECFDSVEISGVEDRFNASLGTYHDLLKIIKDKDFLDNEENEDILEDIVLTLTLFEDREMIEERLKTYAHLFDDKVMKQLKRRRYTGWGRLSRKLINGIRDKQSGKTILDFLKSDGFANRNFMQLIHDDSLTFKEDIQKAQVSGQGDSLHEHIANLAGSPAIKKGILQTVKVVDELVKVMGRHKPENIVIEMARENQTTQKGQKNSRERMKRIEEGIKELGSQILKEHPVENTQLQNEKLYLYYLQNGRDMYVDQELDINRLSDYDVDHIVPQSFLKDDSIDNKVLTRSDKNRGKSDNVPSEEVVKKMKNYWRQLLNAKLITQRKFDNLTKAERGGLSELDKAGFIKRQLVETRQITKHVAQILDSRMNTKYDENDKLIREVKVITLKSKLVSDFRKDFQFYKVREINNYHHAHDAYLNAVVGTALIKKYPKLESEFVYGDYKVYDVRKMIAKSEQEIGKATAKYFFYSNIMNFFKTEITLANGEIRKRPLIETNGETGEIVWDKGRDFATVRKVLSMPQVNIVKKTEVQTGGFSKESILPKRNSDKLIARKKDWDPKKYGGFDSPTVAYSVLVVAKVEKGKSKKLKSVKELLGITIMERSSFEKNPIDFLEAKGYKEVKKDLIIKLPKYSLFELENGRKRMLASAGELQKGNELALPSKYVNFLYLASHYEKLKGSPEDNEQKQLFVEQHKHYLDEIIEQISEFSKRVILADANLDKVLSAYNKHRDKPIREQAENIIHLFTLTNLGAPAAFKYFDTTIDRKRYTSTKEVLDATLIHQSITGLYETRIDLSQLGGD
# T4 sequence (Q99ZW2 whole entry): as above
sequence,measurement,setting,value
"DLDYAQLRDKCYPENEDRLQSYDLDGSGSHHHHHH [PTD18, His-tagged CAAP oligopeptide dimer, parallel and antiparallel, against PDGF-β]",interaction with the PDGF-β target oligopeptide PTD10,[1],bound to the target
"EDRLQSYDLDGSGSHHHHHH [PTD17, His-tagged CAAP oligopeptide monomer, antiparallel, against PDGF-β]",interaction with the PDGF-β target oligopeptide PTD10,[1],no detectable interaction
EYRLYLRALCYPENLSRAYLSYEGSGSHHHHHH [PTD16],interaction with the AP target oligopeptide PTD8,[2],bound to the target
"GSGSHHHHHH [PTD20, reference compound]",interaction with the PDGF-β target oligopeptide PTD10,[1],no detectable interaction
same,interaction with the AP target oligopeptide PTD8,[2],no detectable interaction
"LEQIKIRLFGSGSHHHHHH [PTD13, synthetic His-tagged CAAP oligopeptide monomer (sAb) against Cas9]",detection of whole Cas9 protein in western blot,[3],unable to detect
same,interaction of His-tagged synthetic CAAP oligopeptide with the control peptide PTD8,[4],no interaction
same,detection of whole Cas9 protein in dot blot,[5],unable to detect
same,number of major bands detected in E. coli whole cell lysate,[6],one
same,number of minor bands detected in E. coli whole cell lysate,[6],2
same,interaction of His-tagged synthetic CAAP oligopeptide with the target peptide PTD12,[7],could interact; also recorded: detected
"LLQVDVILLCYPENLEQIKIRLFGSGSHHHHHH [PTD14, synthetic His-tagged CAAP oligopeptide dimer (sAb) against Cas9]",detection of whole Cas9 protein in western blot,[3],able to detect
same,interaction of His-tagged synthetic CAAP oligopeptide with the control peptide PTD8,[4],no interaction
same,effect on RNA-guided DNA cleavage by Cas9 nuclease,"[8]; 510 bp AAVS1 DNA, 37° C. 15 minutes, PTD16 as unrelated peptide control",no significant effect
same,non-specific DNA binding activity of the Cas9 protein directed by the peptide,"[8]; presence or absence of gRNA, various Cas9 concentrations",significant induction; also recorded: very strong
same,detection of whole Cas9 protein in dot blot,[5],able to detect
same,number of major bands detected in E. coli whole cell lysate,[6],one
same,number of minor bands detected in E. coli whole cell lysate,[6],4
same,strength of interaction with PTD12 relative to monomer PTD13,"[7]; dot blot densitometry, dimer vs monomer",stronger (two-fold)
same,interaction of His-tagged synthetic CAAP oligopeptide with the target peptide PTD12,[7],could interact
LSRAYLSYEGSGSHHHHHH [PTD15],interaction with the AP target oligopeptide PTD8,[2],no detectable interaction
